Consider 2 molecules from PMC5080380, “Mechanical Strength and Inhibition of the Staphylococcus aureus Collagen-Binding Protein Cna” (mBio, 2016).

The target in assay [1] is type II collagen purified from bovine nasal septum (bovine) (UniProt P02459). Briefly: single-cell force spectroscopy (AFM); a single living Cna^(+) S. aureus Phillips bacterium on a colloidal probe cantilever against a Cn substrate (NHS chemistry); PBS, 20°C; contact time 100 ms, 250 pN, 1,000 nm s^-1; Cna^(−) cells as control.
Sequence of type II collagen purified from bovine nasal septum (bovine) (P02459 182-1241): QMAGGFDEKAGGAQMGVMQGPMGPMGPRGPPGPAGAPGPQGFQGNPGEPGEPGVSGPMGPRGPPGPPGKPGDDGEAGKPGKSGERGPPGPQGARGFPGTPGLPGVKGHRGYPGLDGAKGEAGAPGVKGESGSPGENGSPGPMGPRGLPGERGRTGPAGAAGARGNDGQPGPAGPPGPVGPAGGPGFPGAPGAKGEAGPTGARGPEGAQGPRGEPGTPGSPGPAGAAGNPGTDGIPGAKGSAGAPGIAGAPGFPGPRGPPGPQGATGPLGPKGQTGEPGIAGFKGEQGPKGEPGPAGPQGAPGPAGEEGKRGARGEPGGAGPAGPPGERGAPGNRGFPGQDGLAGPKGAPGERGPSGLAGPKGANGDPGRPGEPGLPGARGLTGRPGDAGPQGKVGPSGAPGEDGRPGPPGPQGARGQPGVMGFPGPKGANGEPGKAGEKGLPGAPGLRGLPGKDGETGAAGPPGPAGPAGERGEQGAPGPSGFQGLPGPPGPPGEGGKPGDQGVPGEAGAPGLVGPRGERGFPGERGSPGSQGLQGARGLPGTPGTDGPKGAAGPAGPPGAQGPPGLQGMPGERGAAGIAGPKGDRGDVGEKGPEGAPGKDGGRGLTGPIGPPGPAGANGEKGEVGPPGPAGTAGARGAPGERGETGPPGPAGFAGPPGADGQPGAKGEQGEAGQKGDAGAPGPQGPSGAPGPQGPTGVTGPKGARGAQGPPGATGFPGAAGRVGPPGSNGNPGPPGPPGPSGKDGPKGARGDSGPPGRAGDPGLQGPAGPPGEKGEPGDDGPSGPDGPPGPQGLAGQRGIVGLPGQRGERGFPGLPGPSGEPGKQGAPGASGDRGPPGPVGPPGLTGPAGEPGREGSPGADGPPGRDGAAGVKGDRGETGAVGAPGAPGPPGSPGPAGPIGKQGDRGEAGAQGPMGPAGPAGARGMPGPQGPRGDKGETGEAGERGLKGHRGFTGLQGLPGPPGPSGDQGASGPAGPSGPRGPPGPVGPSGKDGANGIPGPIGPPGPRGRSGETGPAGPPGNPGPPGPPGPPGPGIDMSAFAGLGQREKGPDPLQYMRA
The target is the same in assay [2]. Briefly: single-molecule force spectroscopy (AFM); Cn tips (NHS chemistry) on living Cna^(+) S. aureus Phillips bacteria trapped in porous membranes; PBS, 20°C; contact time 100 ms, 250 pN, 1,000 nm s^-1; Cna^(−) cells and 9G7 MAb (10 µg/ml) as controls.
Assay [3] has as its target T1, type II collagen purified from bovine nasal septum (bovine, UniProt P02459 182-1241).
T1 construct: Collagen type II, bovine, purified from nasal septum; collagen alpha-1(II) chain; Attached to gold-coated tips or substrates by NHS/EDC chemistry, or coated on microtiter wells; also called Cn; type II Cn; source: purified from bovine nasal septum (as described by Strawich and Nimni)
In words: single-molecule force spectroscopy (AFM); inverse configuration: Cn on the tip and CNA_(31–344) on the substrate, both by NHS chemistry; PBS, 20°C; contact time 250 ms, 250 pN, 1,000 nm s^-1 (retraction speed varied for koff); 6 tips and substrates. To be noted: both partners purified.

In assay [4] the target is T1, type II collagen purified from bovine …. Briefly: single-molecule force spectroscopy (AFM); recombinant CNA fragment on the tip at low density by a PEG-benzaldehyde linker, Cn on the substrate by NHS chemistry; PBS, 20°C; contact time 250 ms, maximum applied force 250 pN, approach and retraction speeds 1,000 nm s^-1 (retraction speed varied for the loading-rate plot and koff); 8 tips and substrates. To be noted: both partners purified.

T1 sequence (P02459 182-1241): as above

For “full-length collagen-binding protein Cna expressed on living Staphylococcus aureus strain Phillips cells (natural protein)”, in assay [1], the adhesion force (single cell) is 100 to 5000 pN; the fraction of force curves with adhesion force peaks was in the range of 54 to 89%; the strong adhesion force (single cell), cell no. 1 was determined as 2120 pN; the strong adhesion force (single cell), cell no. 2 stood at 3380 pN. In assay [1], the strong adhesion force (single cell), cell no. 3 turned out to be 2500 pN; the strong adhesion force (single cell), cell no. 4 was found to be 3250 pN; the strong adhesion force (single cell), cell no. 5 came to 1890 pN; the strong adhesion force (single cell), cell no. 6 came out at 3620 pN. For the same molecule, in assay [1], the strong adhesion forces (single cell) amounted to 3160 pN and the weak adhesion forces (single cell) worked out at 670 pN. Besides, in assay [2], the strong adhesion forces (single molecule) amounted to 1170 pN and the weak adhesion forces (single molecule) was 239 pN.

B1: recombinant CNA_(31–344), N1N2 subdomains of the A region of the Staphylococcus aureus collagen-binding protein Cna (domain or fragment)
chain: RDISSTNVTDLTVSPSKIEDGGKTTVKMTFDDKNGKIQNGDMIKVAWPTSGTVKIEGYSKTVPLTVKGEQVGQAVITPDGATITFNDKVEKLSDVSGFAEFEVQGRNLTQTNTSDDKVATITSGNKSTNVTVHKSEAGTSSVFYYKTGDMLPEDTTHVRWFLNINNEKSYVSKDITIKDQIQGGQQLDLSTLNINVTGTHSNYYSGQSAITDFEKAFPGSKITVDNTKNTIDVTIPQGYGSYNSFSINYKTKITNEQQKEFVNNSQAWYQEHGKEEVNGKSFNHTVHNINANAGIEGTVKGELKVLKQDKDTKA
notes: Collagen adhesin Cna of S. aureus FDA 574, residues 31 to 344 (predicted N1N2 subdomains of the A region); In the assay it was coupled covalently to the AFM tip (PEG-benzaldehyde linker) or to the substrate (NHS chemistry); source: recombinant, cloned into plasmid pQE30, purified
As usually defined, the koff is a measure of how fast the partners let go of each other. Take B1: the values for the off-rate constant (koff) in assay [3] and in assay [4] were 0.0005 s⁻¹ and 0.0002 s⁻¹, respectively.
